Tests used:
Assay in all cases: IEDB peptide-MHC binding, purified MHC/competitive/radioactivity; filed as Kd, often an IC50 or EC50 that approximates it; ≥ and ≤ were set here for values at or beyond the usual limits of such assays
[1] = target: HLA-A*02:02
[2] = target: HLA-A*02:03
[3] = target: HLA-A*02:06
[4] = target: HLA-A*03:01
[5] = target: HLA-A*11:01
[6] = target: HLA-A*31:01
[7] = target: HLA-A*33:01
[8] = target: HLA-A*68:01
[9] = source organism: Vaccinia virus WR
[10] = source organism: Dengue virus 4 Philippines/H241/1956
[11] = source organism: SARS coronavirus Tor2
[12] = source organism: Mammarenavirus guanaritoense
[13] = source organism: Dengue virus 1 Brazil/97-11/1997
[14] = source organism: Vaccinia virus Copenhagen

Sequence	Kd [1, 9] [nM]	Kd [2, 9] [nM]	Kd [3, 9] [nM]	also measured
DVLPFDIKYI	1200	188	1110	–
NVKSKLLWFL	2290	633	≥ 31000	–
GLVSLLGSA	–	–	–	Kd [2, 10]: 4.12 nM
ETVKMGAFM	15000	7430	≥ 40400	–
MAEFEDQLV	165	641	5510	–
RQDYRRSINV	1010	375	2220	–
ETNIGCAVNT	≥ 70000	≥ 37000	≥ 69800	–
VIPDELIDVL	2490	4590	298	–
STSPTRTWKV	397	717	504	–
TLNEDLLEI	–	–	–	Kd [1, 11]: 1.45 nM; Kd [2, 11]: 2.24 nM; Kd [3, 11]: 56.3 nM
PASKKESVI	1350	1760	10300	–
AAVTLNRIKI	830	3490	1920	–
DLNSFEQLCI	–	–	–	Kd ([3]; source organism: Homo sapiens): ≥ 128000 nM
KIDKLTFQI	141	10600	41.9	–
DVNEEYTEAA	≥ 46300	≥ 28800	≥ 59200	–
VQIENLEYTV	–	–	–	Kd [3, 10]: 4.4 nM
YCLDFLFDV	–	–	–	Kd [1, 12]: 17300 nM; Kd [2, 12]: ≥ 78100 nM; Kd [3, 12]: ≥ 77000 nM
LIYYQNEVT	14000	5210	8510	–
TLYAVATTVI	–	–	–	Kd [2, 13]: 195 nM
MLHNPTSET	4210	184	≥ 77100	–
LLMLVTPSMA	–	–	–	Kd [2, 13]: 23.6 nM
SMKGENVFI	5.48	18.9	13700	–
TLLNETAKVI	2860	2130	8550	–
YTVEFDRDKV	82.6	154	22	–
QQFANVISKI	51.5	1.7	863	–
NIVTFINDYA	61.8	245	351	–

Sequence	Kd [1, 9] [nM]	Kd [2, 9] [nM]	Kd [3, 9] [nM]	also measured
IVSRSSRGV	264	13200	476	–
TLLIKTLSPA	1.05	1.17	0.728	–
YLRLYIILA	–	–	–	Kd [1, 14]: 8.26 nM; Kd [2, 14]: 52.4 nM; Kd [3, 14]: 4180 nM
CTINVNSLA	1040	1610	248	–
GQIHLAIMAV	–	–	–	Kd [3, 10]: 1.33 nM
IISTDQDTML	451	1810	666	–
PTWLGAAITL	1360	1010	1770	–
NIVASVNMV	–	–	–	Kd ([2]; source organism: Dengue virus 3 Martinique/1243/1999): 82.9 nM
GIRCVSNLDI	≥ 20100	3870	≥ 32900	–
SSRVDRYSK	–	–	–	Kd [4, 9]: 0.0659 µM; Kd [5, 9]: 16.9 nM; Kd [6, 9]: 0.266 µM; Kd [7, 9]: 1210 nM; Kd [8, 9]: 611 nM
FIQWTGGNIR	–	–	–	Kd [4, 9]: ≥ 29.8 µM; Kd [5, 9]: ≥ 22000 nM; Kd [6, 9]: 3.86 µM; Kd [7, 9]: 2050 nM; Kd [8, 9]: 112 nM
VTSSGVIYK	–	–	–	Kd ([4]; source organism: Variola virus): ≥ 70 µM; Kd ([5]; source organism: Variola virus): ≥ 69700 nM; Kd ([6]; source organism: Variola virus): ≥ 70 µM; Kd ([7]; source organism: Variola virus): ≥ 70000 nM; Kd ([8]; source organism: Variola virus): ≥ 70100 nM
QIYLSDSDNI	1240	19600	14900	–
PVSDLYTSMR	–	–	–	Kd [4, 9]: 6.26 µM; Kd [5, 9]: 638 nM; Kd [6, 9]: 0.539 µM; Kd [7, 9]: 346 nM; Kd [8, 9]: 1.3 nM
RLRQDTEDI	230	387	4580	–
DMLLNVQTL	7400	5070	13400	–
HINDQKFDDV	5860	1160	1190	–
HILHAYCGI	123	66.5	359	–
FIDRGSIKI	9720	12200	4030	–
KVIGLYGNGV	–	–	–	Kd [3, 10]: 12.3 nM
TVENNIDFLK	–	–	–	Kd [4, 9]: 2.65 µM; Kd [5, 9]: 69.9 nM; Kd [6, 9]: 8.65 µM; Kd [7, 9]: 17900 nM; Kd [8, 9]: 19.7 nM
QMAGVEVRYI	0.208	0.138	44.8	–
ETDDDGNYPL	3590	≥ 28200	1160	–
YMSNLFDIPL	19.2	10.2	127	–
VIRNEVNDT	19900	820	≥ 77100	–
DFLKDDTLSK	–	–	–	Kd [4, 9]: 15 µM; Kd [5, 9]: 5760 nM; Kd [6, 9]: ≥ 70 µM; Kd [7, 9]: 8000 nM; Kd [8, 9]: 10700 nM

Reference: the Immune Epitope Database (IEDB)
